From patent US20240059797A1 (GRITSTONE BIO, published 2024) come the findings set out here.

Assay [1] has as its target T1, HLA-A*01:01_… (HLA-PEPTIDE target G2), recombinant biotinylated complex (human, enzymatically biotinylated (BirA)).
T1 construct: also called G2-pHLA
Description: BLI. (Biolayer interferometry detects binding as a change in optical thickness at a sensor tip.)

Assay [2] deals with T2, HLA-A*01:01_… (G2) presented on cells (human).
T2 construct: whole, on cells; K562 transduced with HLA-A*01:01 and pulsed with peptide, or A375 transduced with a 10x peptide cassette; also called G2 on K562 or A375 cells
Briefly: flow cytometry, peptide-pulsed K562 cells.
Description: Cells were harvested, washed in PBS, and stained with eBioscience Fixable Viability Dye eFluor 450 for 15 minutes at room temperature. Following another wash in PBS+2% FBS, cells were resuspended with bispecifics at varying concentrations. Cells were incubated with bispecifics for 1 hour at 4° C. […] After incubating at 4° C. for 45 minutes and washing in PBS+2% FBS, cells were resuspended in PBS+2% FBS and analyzed by flow cytometry. […] All cell lines were stained and analyzed with bispecific binding using the same methods as the K562 cells.
Flow cytometric analysis was performed on the Attune NxT Flow Cytometer (ThermoFisher) using the Attune NxT Software. Data was analyzed using FlowJo.

Assay [3] has as its target T2, HLA-A*01:01_… (G2) presented on cells. Briefly: flow cytometry, A375 cells expressing the G2 peptide.
Description: Tumor cells engineered to express target peptide were harvested, washed in PBS, and stained with eBioscience Fixable Viability Dye eFluor 450 for 15 minutes at room temperature. Following another wash in PBS+1-2% FBS, cells were resuspended with the indicated molecules at varying concentrations and incubated for 1 hour at 4° C. After another wash, PE-conjugated goat anti-human IgG secondary antibody (Jackson ImmunoResearch) was added at 1:100 to 1:200 for 30 minutes at 4° C. After washing in PBS+1-2% FBS, cells were resuspended in PBS+1-2% FBS and analyzed by flow cytometry. Flow cytometric analysis was performed on the Attune NxT Flow Cytometer (ThermoFisher) using the Attune NxT Software. Data was analyzed using FlowJo.
The target of assay [4] is T1, HLA-A*01:01_… (HLA-PEPTIDE target G2), …. Briefly: BLI (Octet HTX), biotinylated pHLA on SAX sensor, 1:1 model.
Description: (§1) The affinity of wildtype and DSB mutants were analyzed on the ForteBio Octet HTX in 96-channel mode with biolayer interferometry (BLI) detection. […] The biosensors were then dipped in assay buffer for a baseline. […] The biosensors were finally dipped into wells containing assay buffer to measure the dissociation rate for another 50 seconds. Referencing was completed by having a biosensor with no immobilized ligand dipped into analyte. Kinetic data was processed with Octet™ software using a 1:1 kinetic model with errors within 10%, X² below 3, and R² above 0.9.
For assay [5] the target is unchanged. Description: BLI (ForteBio Octet HTX), biotinylated G2-pHLA captured on streptavidin SAX biosensor, bispecific in solution, 1:1 Fit.
Description: (§2) The biosensors were then dipped in assay buffer for a baseline. […] The biosensors were finally dipped into wells containing assay buffer to measure the dissociation rate for another 50 seconds. Referencing was completed by having a biosensor with no immobilized ligand dipped into analyte. Kinetic data was processed with Octet™ software using a 1:1 kinetic model with errors within 10%, X² below 3, and R² above 0.9.
Assay [6] shares this target. Briefly: BLI (ForteBio Octet HTX), biotinylated G2-pHLA captured on streptavidin SAX biosensor, bispecific in solution, 1:2 Fit.
Assay [7] has the same target. Briefly: BLI (ForteBio Octet HTX), biotinylated G2-pHLA captured on streptavidin SAX biosensor, bispecific in solution, 1:1 kinetic model.
Description: as §1
Assay [8] has as its target T3, HLA-B*35:01_… (G5) presented on cells (human).
T3 construct: whole, on cells; also called G5 on K562 or LN229 cells
Description: flow cytometry on LN229 cells engineered to express the G5 peptide (LN229-G5-9mer), PE anti-human IgG secondary.
Description: Cells were harvested, washed in PBS, and stained with eBioscience Fixable Viability Dye eFluor 450 for 15 minutes at room temperature. Following another wash in PBS+2% FBS, cells were resuspended with bispecifics at varying concentrations. Cells were incubated with bispecifics for 1 hour at 4° C. After another wash, PE-conjugated goat anti-human IgG secondary antibody (Jackson ImmunoResearch) was added at 1:100. After incubating at 4° C. for 45 minutes and washing in PBS+2% FBS, cells were resuspended in PBS+2% FBS and analyzed by flow cytometry. Flow cytometric analysis was performed on the Attune NxT Flow Cytometer (ThermoFisher) using the Attune NxT Software. Data was analyzed using FlowJo.

In assay [9] the target is T4, HLA-B*35:01_… (HLA-PEPTIDE target G5), recombinant biotinylated complex (human, enzymatically biotinylated (BirA)).
T4 construct: also called G5-pHLA
Briefly: BLI (ForteBio Octet HTX), biotinylated G5-pHLA captured on streptavidin SAX biosensor, bispecific in solution, 1:1 Fit.
Description: as §2

Assay [10] addresses T4, HLA-B*35:01_… (HLA-PEPTIDE target G5), …. Briefly: BLI (ForteBio Octet HTX), biotinylated G5-pHLA captured on streptavidin SAX biosensor, bispecific in solution, 1:2 Fit.

Residue numbers refer to the chain shown, from its start.

B1: 4-anti-CD3-G2(1H11) (bispecific antibody)
chain: not shown
heavy: QVQLVQSGAEVKKPGASVKVSCKASGYTFTNYYMHWVRQAPGQGLEWMGMINPSGGGTSYAQKFQGRVTMTRDTSTSTVYMELSSLRSEDTAVYYCARGNPWELRLDYWGQGTLVTVSSGGGGSGGGGSGGGGSGGGGSDIQMTQSPSSLSASVGDRVTITCQASQDISNYLNWYQQKPGKAPKLLIYAASSLQSGVPSRFSGSGSGTDFTLTISSLQPEDFATYYCQQYYSYPFTFGPGTKVDIKGGGGSGGGGSEVQLVESGGGLVQPGGSLRLSCAASGFTFSTYAMNWVRQAPGKGLEWVGRIRSKYNNYATYYADSVKGRFTISRDDSKNTLYLQMNSLRAEDTAVYYCVRHGNFGDSYVSWFAYWGQGTLVTVSSASTKGPSVFPLAPSSKSTSGGTAALGCLVKDYFPEPVTVSWNSGALTSGVHTFPAVLQSSGLYSLSSVVTVPSSSLGTQTYICNVNHKPSNTKVDKRVEPKSCDKTHTCPPCPAPELLGGPSVFLFPPKPKDTLMISRTPEVTCVVVDVSHEDPEVKFNWYVDGVEVHNAKTKPREEQYQSTYRVVSVLTVLHQDWLNGKEYKCKVSNKALPAPIEKTISKAKGQPREPQVCTLPPSREEMTKNQVSLSCAVKGFYPSDIAVEWESNGQPENNYKTTPPVLDSDGSFFLVSKLTVDKSRWQQGNVFSCSVMHEALHNRFTQKSLSLSPGK
light: QAVVTQEPSLTVSPGGTVTLTCGSSTGAVTTSNYANWVQQKPGKSPRGLIGGTNKRAPGVPARFSGSLLGGKAALTISGAQPEDEADYYCALWYSNHWVFGGGTKLTVLRTVAAPSVFIFPPSDEQLKSGTASVVCLLNNFYPREAKVQWKVDNALQSGNSQESVTEQDSKDSTYSLSSTLTLSKADYEKHKVYACEVTHQGLSSPVTKSFNRGEC
notes: also called 4-G2(1H11)-αCD3
For the molecule B1, the binding result in assay [1] and in [2] was “binds” throughout.

B2: 4-hOKT3-G2(1H11) (bispecific antibody, human IgG1, kappa, N297Q)
chain: not shown
heavy: QVQLVQSGAEVKKPGASVKVSCKASGYTFTNYYMHWVRQAPGQGLEWMGMINPSGGGTSYAQKFQGRVTMTRDTSTSTVYMELSSLRSEDTAVYYCARGNPWELRLDYWGQGTLVTVSSGGGGSGGGGSGGGGSGGGGSDIQMTQSPSSLSASVGDRVTITCQASQDISNYLNWYQQKPGKAPKLLIYAASSLQSGVPSRFSGSGSGTDFTLTISSLQPEDFATYYCQQYYSYPFTFGPGTKVDIKGGGGSGGGGSQVQLVQSGAEVKKPGASVKVSCKASGYTFTRYTMHWVRQAPGQGLEWMGYINPSRGYTNYNQKFKDRVTLTTDKSSSTAYMELSSLRSEDTAVYYCARYYDDHYSLDYWGQGTLVTVSSASTKGPSVFPLAPSSKSTSGGTAALGCLVKDYFPEPVTVSWNSGALTSGVHTFPAVLQSSGLYSLSSVVTVPSSSLGTQTYICNVNHKPSNTKVDKRVEPKSCDKTHTCPPCPAPELLGGPSVFLFPPKPKDTLMISRTPEVTCVVVDVSHEDPEVKFNWYVDGVEVHNAKTKPREEQYQSTYRVVSVLTVLHQDWLNGKEYKCKVSNKALPAPIEKTISKAKGQPREPQVCTLPPSREEMTKNQVSLSCAVKGFYPSDIAVEWESNGQPENNYKTTPPVLDSDGSFFLVSKLTVDKSRWQQGNVFSCSVMHEALHNRFTQKSLSLSPGK
light: DIQMTQSPSSLSASVGDRVTITCSASSSVSYMNWYQQKPGKAPKRLIYDTSKLASGVPSRFSGSGSGTDFTLTISSLQPEDFATYYCQQWSSNPFTFGQGTKLEIKRTVAAPSVFIFPPSDEQLKSGTASVVCLLNNFYPREAKVQWKVDNALQSGNSQESVTEQDSKDSTYSLSSTLTLSKADYEKHKVYACEVTHQGLSSPVTKSFNRGEC
notes: format 4; its Fc may differ; also called 4-G2(1H11)-hOKT3; Format 4 G2(1H11) without the DSB
As a reminder, the EC50 is the concentration at which the effect is half-maximal. High values mean lower potency in that assay, low ones higher potency in that assay. As usually defined, the Kd is a measure of binding affinity in units of concentration. By koff is commonly meant the first-order rate constant of dissociation. A word on the kon: it is a measure of how fast the partners come together. As to B2, in [3], the midpoint of the response, the EC50, lay at 9.8 nM. In addition, the Kd in [4] amounted to 18 nM; in assay [5] it was 30.3 nM; in assay [6] it was 1640 nM. Also, the figures for the off-rate constant (koff) in [5], in assay [6] and in [7] were 0.0277 s⁻¹, 0.324 s⁻¹ and 0.00397 s⁻¹, respectively. The kon in [5] was 913000 M⁻¹ s⁻¹; in assay [6], 198000 M⁻¹ s⁻¹.

B3: 4-G5(1C12)_10AAL hOKT3a (bispecific antibody)
chain: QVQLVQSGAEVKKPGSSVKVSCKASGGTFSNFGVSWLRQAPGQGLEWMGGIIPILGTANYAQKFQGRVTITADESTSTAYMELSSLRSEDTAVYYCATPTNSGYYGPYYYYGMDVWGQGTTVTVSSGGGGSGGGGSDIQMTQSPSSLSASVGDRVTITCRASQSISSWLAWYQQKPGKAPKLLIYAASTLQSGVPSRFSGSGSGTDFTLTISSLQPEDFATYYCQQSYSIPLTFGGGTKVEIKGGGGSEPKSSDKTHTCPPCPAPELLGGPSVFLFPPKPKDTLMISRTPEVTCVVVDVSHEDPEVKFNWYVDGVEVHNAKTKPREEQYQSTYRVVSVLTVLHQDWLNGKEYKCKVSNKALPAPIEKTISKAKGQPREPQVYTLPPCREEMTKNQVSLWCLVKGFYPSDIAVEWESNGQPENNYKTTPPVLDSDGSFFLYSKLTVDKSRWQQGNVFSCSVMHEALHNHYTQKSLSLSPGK
heavy: QVQLVQSGAEVKKPGSSVKVSCKASGGTFSNFGVSWLRQAPGQGLEWMGGIIPILGTANYAQKFQGRVTITADESTSTAYMELSSLRSEDTAVYYCATPTNSGYYGPYYYYGMDVWGQGTTVTVSSGGGGSGGGGSDIQMTQSPSSLSASVGDRVTITCRASQSISSWLAWYQQKPGKAPKLLIYAASTLQSGVPSRFSGSGSGTDFTLTISSLQPEDFATYYCQQSYSIPLTFGGGTKVEIKGGGGSGGGGSQVQLVQSGAEVKKPGASVKVSCKASGYTFTRYTMHWVRQAPGQGLEWMGYINPSRGYTNYNQKFKDRVTLTTDKSSSTAYMELSSLRSEDTAVYYCARYYDDHYSLDYWGQGTLVTVSSASTKGPSVFPLAPSSKSTSGGTAALGCLVKDYFPEPVTVSWNSGALTSGVHTFPAVLQSSGLYSLSSVVTVPSSSLGTQTYICNVNHKPSNTKVDKRVEPKSCDKTHTCPPCPAPELLGGPSVFLFPPKPKDTLMISRTPEVTCVVVDVSHEDPEVKFNWYVDGVEVHNAKTKPREEQYQSTYRVVSVLTVLHQDWLNGKEYKCKVSNKALPAPIEKTISKAKGQPREPQVCTLPPSREEMTKNQVSLSCAVKGFYPSDIAVEWESNGQPENNYKTTPPVLDSDGSFFLVSKLTVDKSRWQQGNVFSCSVMHEALHNRFTQKSLSLSPGK
light: B2 light
notes: format 4 diabody; also called G5(1C12)-hOKT3a Format 4 with shortened linkers
By EC50 (read off the curve) is commonly meant the concentration at which the effect is half-maximal. Low readings indicate greater potency, high ones weaker potency. B3: the “EC50 (read off the curve)” value in [8] was about 1 nM. Moreover, in assay [9], the Kd is 2.2 nM, the off-rate (koff) is 0.00279 s⁻¹ and the on-rate constant (kon) worked out at 1.27e+06 M⁻¹ s⁻¹. Also, in assay [10], the equilibrium dissociation constant (Kd) worked out at 16.1 nM, the koff amounted to 0.00652 s⁻¹ and the kon turned out to be 405000 M⁻¹ s⁻¹.

B4: 4-hOKT3-G2(1H11) with engineered H44/L100 disulfide bond (bispecific antibody, human IgG1, kappa, N297Q)
chain: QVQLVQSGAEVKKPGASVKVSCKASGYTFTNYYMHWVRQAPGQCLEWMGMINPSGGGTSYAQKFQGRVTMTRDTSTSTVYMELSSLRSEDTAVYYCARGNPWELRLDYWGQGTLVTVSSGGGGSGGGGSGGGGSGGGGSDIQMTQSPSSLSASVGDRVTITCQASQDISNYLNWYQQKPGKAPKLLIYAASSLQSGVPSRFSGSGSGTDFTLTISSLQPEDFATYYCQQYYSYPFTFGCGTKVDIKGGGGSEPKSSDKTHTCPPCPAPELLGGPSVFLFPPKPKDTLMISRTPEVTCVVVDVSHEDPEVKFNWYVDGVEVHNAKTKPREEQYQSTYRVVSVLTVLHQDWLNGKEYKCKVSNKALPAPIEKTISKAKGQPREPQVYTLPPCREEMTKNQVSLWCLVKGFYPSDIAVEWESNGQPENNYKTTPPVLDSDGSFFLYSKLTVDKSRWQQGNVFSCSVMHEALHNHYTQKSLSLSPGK
heavy: B2 heavy with G44C, P239C
light: B2 light
notes: also called G2(1H11)-hOKT3_DSBH44/L100 Format 4; G2 Format 4 with the DSB
The molecule B4 showed an EC50 in assay [3] of 1750 nM. Besides, in assay [4], the equilibrium dissociation constant (Kd) came to 35.1 nM. Moreover, the off-rate (koff) in assay [7] is 0.025 s⁻¹.
